Experimental data taken from patent publication US20040235714A1 (Amgen, published 2004).

T1: human GDNFR-α Related Receptor 2 (GRR2), endogenously expressed on LA-N-5 neuroblastoma cells (human, UniProt O00451 22-444)
T1 construct: whole, on cells; GDNFR-α mRNA was not detected; The cells also express Ret; also called hGRR2
T1 sequence (looked up): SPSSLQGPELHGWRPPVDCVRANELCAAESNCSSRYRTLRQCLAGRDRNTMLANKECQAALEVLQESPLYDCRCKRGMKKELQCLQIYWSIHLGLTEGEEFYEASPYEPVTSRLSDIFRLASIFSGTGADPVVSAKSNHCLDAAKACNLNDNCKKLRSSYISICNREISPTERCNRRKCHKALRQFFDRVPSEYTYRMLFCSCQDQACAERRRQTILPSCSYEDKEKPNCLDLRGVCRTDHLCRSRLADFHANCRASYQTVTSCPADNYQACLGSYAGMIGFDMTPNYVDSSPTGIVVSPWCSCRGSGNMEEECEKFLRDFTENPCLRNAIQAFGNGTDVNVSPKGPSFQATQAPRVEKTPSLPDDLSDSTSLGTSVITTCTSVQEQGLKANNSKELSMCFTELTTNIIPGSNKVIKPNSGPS

T2: rat GDNF receptor-alpha (GDNFR-α) expressed on cells from the rat cDNA clone (rat, UniProt Q62997 25-430, GPI-anchored to the cell membrane)
T2 construct: also called rGDNFR-α
T2 sequence: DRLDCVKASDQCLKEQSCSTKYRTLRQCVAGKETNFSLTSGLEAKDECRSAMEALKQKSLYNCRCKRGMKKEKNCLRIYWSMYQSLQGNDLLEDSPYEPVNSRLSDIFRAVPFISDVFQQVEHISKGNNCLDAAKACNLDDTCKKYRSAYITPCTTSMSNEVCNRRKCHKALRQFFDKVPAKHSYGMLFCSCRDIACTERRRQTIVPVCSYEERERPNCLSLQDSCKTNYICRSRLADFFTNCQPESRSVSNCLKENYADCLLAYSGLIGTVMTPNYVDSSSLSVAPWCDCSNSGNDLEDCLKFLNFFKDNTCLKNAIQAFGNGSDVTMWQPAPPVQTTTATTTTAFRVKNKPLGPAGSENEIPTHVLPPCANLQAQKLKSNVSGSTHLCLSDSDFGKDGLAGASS

B1: neurturin, recombinant human (ligand, UniProt Q99748 96-197, looked up)
chain: ARLGARPCGLRELEVRVSELGLGYASDETVLFRYCAGACEAAARVYDLGLRRLRQRRRLRRERVRAQPCCRPTAYEDEVSFLDAHSRYHTVHELSARECACV
modifications: radio-iodinated ([125I]) in the binding and cross-linking assays; unlabeled as competitor and in the phosphorylation assays
notes: mature; also called NTN
B2: glial cell line-derived neurotrophic factor (GDNF), recombinant human (ligand, UniProt P39905 78-211, looked up)
chain: SPDKQMAVLPRRERNRQAAAANPENSRGKGRRGQRGKNRGCVLTAIHLNVTDLGLGYETKEELIFRYCSGSCDAAETTYDKILKNLSRNRRLVSDKVGQACCRPIAFDDDLSFLDDNLVYHILRKHSAKRCGCI
modifications: radio-iodinated ([125I]) in the binding and cross-linking assays; unlabeled as competitor and in the phosphorylation assays
notes: mature; also called unlabeled GDNF

Experiments:
[1] = molecular target: T1, human GDNFR-α Related Receptor 2 …; test: summary of Example 10 (cell binding and cross-linking)
[2] = molecular target: T2, rat GDNF receptor-alpha (GDNFR-α) …; test: GDNF binding to 293T cells expressing GDNFR-α; high affinity sites
[3] = molecular target: T2, rat GDNF receptor-alpha (GDNFR-α) …; test: 50 pM [125I]GDNF on NGR-16 cells with or without excess unlabeled GDNF, gamma counting
Method: (§1) Neuro-2a cells were transfected with a mammalian expression vector containing the rat GDNFR-α cDNA (such as the expression plasmid described above). Three clonal lines, NGR-16, NGR-33, and NGR-38 were tested for their ability to bind [¹²⁵I]GDNF. The unbound [¹²⁵I]GDNF was removed at the end of the incubation and the amount of radioactivity associated with the cells was determined as described in Experimental Procedures. […] Binding could be effectively competed by the addition of 500 nM unlabeled GDNF.
(§2) Neuro-2a cells (ATCC #CCL 131) were transfected with an expression plasmid, as described above, using the Calcium Phosphate Transfection System (GIBCO/BRL) according to the manufacturer's directions. Transfected cells were selected for expression of the plasmid by growth in 400 μg/mL G418 antibiotic (Sigma). G418 resistant clones were expanded and assayed for GDNFR-α expression by binding to [¹²⁵I]GDNF (Amersham, Inc., custom iodination, catalog #IMQ1057). Cells from each clone were seeded at a density of 3×10⁴ cells/cm² in duplicate wells of 24-well tissue culture plates (Becton Dickinson) pre-coated with polyornithine. […] Cells were then washed four times with ice-cold washing buffer, lysed in 1 M NaOH, and the cell-associated radiolabel quantitated in a 1470 Wizard Automated Gamma Counter (Wallac Inc.). […]

[4] = molecular target: T2, rat GDNF receptor-alpha (GDNFR-α) …; test: 50 pM [125I]GDNF on NGR-33 cells with or without excess unlabeled GDNF, gamma counting
Method: as §1, §2

[5] = molecular target: T2, rat GDNF receptor-alpha (GDNFR-α) …; test: equilibrium binding of [125I]GDNF to NGR-38 cells, Scatchard plot; low affinity site
Method: (§3) Following incubation, unbound [¹²⁵I]GDNF was removed and the radioactivity associated with the cells was determined as described in Experimental Procedures. Results are depicted in FIG. 7: (A) Equilibrium binding of [¹²⁵I]GDNF to NGR-38 cells (circles) and Neuro-2a cells (squares) in the presence (open circles and open squares) or absence (filled circles and filled squares) of unlabeled GDNF; (B) Scatchard analysis of [¹²⁵I]GDNF binding to NGR-38 cells.
as §2

[6] = molecular target: T2, rat GDNF receptor-alpha (GDNFR-α) …; test: GDNF binding to 293T cells expressing GDNFR-α; low affinity sites
[7] = molecular target: T2, rat GDNF receptor-alpha (GDNFR-α) …; test: Scatchard analysis of GDNF binding to 293T cells transfected with a GDNFR-α cDNA clone in pBKRSV; low affinity site
[8] = molecular target: T2, rat GDNF receptor-alpha (GDNFR-α) …; test: 50 pM [125I]GDNF on NGR-38 cells with or without excess unlabeled GDNF, gamma counting
Method: as §1, §2

[9] = molecular target: T2, rat GDNF receptor-alpha (GDNFR-α) …; test: equilibrium binding of [125I]GDNF to NGR-38 cells, Scatchard plot; high affinity site
Method: as §3, §2

Binder	binding result [1]	Kd [2] [nM]	ratio of [125I]GDNF bound in the absence and presence of unlabeled GDNF [3]	ratio of [125I]GDNF bound in the absence and presence of unlabeled GDNF [4]	Kd [5] [nM]	Kd [6] [nM]	Kd [7] [nM]	ratio of [125I]GDNF bound in the absence and presence of unlabeled GDNF [8]	Kd [9] [nM]
B1	binds								
B2	binds	~0.002	12.8	8	0.332	~0.2	~0.5	16	0.0015
